From article PMC314469, “Protein Interaction Networks by Proteome Peptide Scanning” (PLoS Biology, 2004)

Biological target: T1, Abp1 SH3 (ABP1_YEAST), P15891
T1 chain: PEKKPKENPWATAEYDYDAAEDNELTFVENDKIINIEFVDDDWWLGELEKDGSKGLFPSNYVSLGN
Assay: SPOT array

Binder | normalised SPOT signal, Boehringer light units (BLU); mean over the file's lines of this peptide
KLYYVLYSSLPSKP [YGR216C 582-595] | 0.4
KMIMKLIPKDVKP [YJL131C 312-324] | 1480
KMISNRRPVPRRP [YPR091C 656-668] | 6230
KMQRYFRPIIVRP [YLR290C 188-200] | 541
KNDGSSSFVKPRRP [YNL215W 286-299] | 202
KNSDMMIPLDVKP [YOL081W 3046-3058] | 89
KNYDVIVPNVWRP [YML115C 378-390] | 15.7
KPEYFPFPIYDKP [YBR086C 485-497] | 96.4
KPFNPTLPEGIRP [YJL050W 736-748] | 87.3
KPGWVVYPPPPKP [YML035C 221-233] | 154
KPLININPYTRKP [YLR357W 223-235] | 1140
KPTPPPKPSHLKP [YNL020C 608-620] | 133000
KPVAPTSTDAPAKP [YOL027C 66-79] | 45.8
KQKNIYVISTPKRP [YLR398C 492-505] | 98.7
KQQQEQQNKAPEKP [YGL105W 191-204] | 97.5
KRAKEYIANLPMRP [YGR040W 256-269] | 22
KRESLNQPSTTKP [YHR084W 174-186] | 134
KRKRSKGEVNPSKP [YPR137W 9-22] | 110
KRLLMKGYIPPYKP [YKL126W 608-621] | 169
KRRTSLFPWLHKP [YDR389W 506-518] | 122

Binder | normalised SPOT signal, Boehringer light units (BLU); mean over the file's lines of this peptide
KRSLEENPVNKRP [YAL011W 331-343] | 33.4
KRYDYKKPTVNRP [YPL074W 344-356] | 71.4
KSDKEISPKSQRP [YER025W 165-177] | 75.6
KSDVPEDPIYSKP [YBR003W 113-125] | 19.8
KSELPKSPYRQKP [YHR184W 123-135] | 205
KSGSSQPPSFIKP [YIR007W 614-626] | 69.8
KSILHGLADEPRRP [YPR084W 202-215] | 98.4
KSLEDYRPPDEKP [YGR197C 50-62] | 161
KSNLLSVPEAYKP [YIL030C 763-775] | 200
KSPSNIKLSIPARP [YJL095W 316-329] | 107
KSQTIILPIYGRP [YGL207W 558-570] | 84.4
KSRHFTYPEGVKP [YHR006W 264-276] | 55.9
KSRLIVNPFIPRRP [YDR409W 855-868] | 360
KSYRKAFPNMVKP [YML002W 638-650] | 217
KTATTPPPVLRRP [YMR184W 66-78] | 9110
KTDAKLKPFIYRP [YGR084C 56-68] | 2160
KTGNPFVRINPNRP [YBR136W 497-510] | 371
KTKAKKEKPKPPKP [YMR044W 279-292] | 119
KTREPLQPRPPVKP [YGR084C 83-96] | 706
KVFLDTHKESPLRP [YKR003W 302-315] | 73.1

Binder | normalised SPOT signal, Boehringer light units (BLU); mean over the file's lines of this peptide
KVHRHEPPVTSKP [YOL066C 148-160] | 69.6
KVKQYIEPESVKP [YBR236C 423-435] | 100
KVMENWTPGAPKP [YGL202W 197-209] | 106
KVVASKIPVISKP [YHR077C 993-1005] | 126
KYIKEKGPSSIKP [YGL251C 1061-1073] | 104
KYREIIRNDLPPRP [YGR109W-B 563-576] | 86
LAFFHNIPKKVRP [YDL058W 339-351] | 221
LAKYAGLPTAEKP [YDL033C 211-223] | 55.9
LAPMMQKGNLPKRP [YBR056W 390-403] | 3410
LSGSDYLQSGPRKP [YMR168C 296-309] | 75.2
LSGIQDNLLSPLKP [YOR365C 124-137] | 110
LSGSIIGPKRVKP [YLR427W 248-260] | 466
LDANEPPIDLPQKP [YOL156W 41-54] | 72.3
LDATEAPIDLPQKP [YIL171W 41-54] | 77.8
LDATEPPIDLPQKP [YJL219W 41-54] | 125
LDDSPVTPGEARP [YPL004C 227-239] | 57.3
LDDSPVTPGETRP [YGR086C 227-239] | 64.5
LDEQPGFQILPFKP [YOR023C 257-270] | 160
LDHAIKLSRNPDKP [YLL051C 566-579] | 97.5
